Data reported in the supplement of paper PMC7877785.
± gives the uncertainty stated by the source.

Assay: self-splicing fitness, log relative to wild type (ln ratio); higher = more splicing; Tetrahymena group I intron in knt gene, E. coli kanamycin selection, DiMSum; sequences stand for … in CUCUCU…GGAGGGAAAAGUUAUCAGGCAUGCACCUGGUAGCUAGUCUUUAAACCAAUAGAUUGCAUCGGUUUAAAAGGCAAGACCGUCAAAUUGCGGGAAAGGGGUCAACAGCCGUUCAGUACCAAGUCUCAGGGGAAACUUUGAGAUGGCCUUGCAAAGGGUAUGGUAAUAAGCUGACGGACAUGGUCCUAACCACGCAGCCAAGUCCUAAGUCAACAGAUCUUCUGUUGAUAUGGAUGCAGUUCACAGACUAAAUGUCGGUCGGGGAAGAUGUAUUCUUCUCAUAAGAUAUAGUCGGACCUCUCCUUAAUGGGAGCUAGCGGAUGAAGUGAUGCAACACUGGAGCCGCUGGGAACUAAUUUGUAUGCGAAAGUAUAUUGAUUAGUUUUGGAGUACUCGUGGUCG
Method in brief: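 A randomised library covering all eight P1ex-region intron nucleotides was built with the intron in the knt kanamycin-resistance gene on pET-22b(+) and held in E. coli BL21(DE3). Cells were grown overnight at 37°C or 30°C on LB agar, with or without 25 μg/mL kanamycin, plus 100 μg/mL carbenicillin, 50 μM IPTG and 0.2% rhamnose, and pooled colonies were amplicon-sequenced on an Illumina HiSeq 2500. DiMSum fitness is the error-weighted combination of wild-type-normalised replicate fold changes, kanamycin versus none.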

Row | Sequence | self-splicing fitness (ln) (30 °C) | self-splicing fitness (ln) (37 °C)
1 | UGCCAGCAAUAUUACGCUGA | -3.01 ± 0.19 | -2.21 ± 0.21
2 | ACCAAGCAAUAUUACGGGCU | -1.12 ± 0.058 | -1.16 ± 0.083
3 | GUAAAGCAAUAUUACGUGGU | -3.26 ± 0.12 | -1.11 ± 0.095
4 | UAGUAGCAAUAUUACGGCAA | -0.858 ± 0.15 | -1.04 ± 0.16
5 | AAGCAGCAAUAUUACGGUGC | -3.29 ± 0.15 | -1.61 ± 0.14
6 | UGUUAGCAAUAUUACGUGUA | -2.88 ± 0.16 | -0.349 ± 0.1
7 | UGGAAGCAAUAUUACGAAGG | -2.12 ± 0.14 | -0.449 ± 0.18
8 | CAUUAGCAAUAUUACGGAUC | -1.46 ± 0.12 | -1.6 ± 0.16
9 | CUAUAGCAAUAUUACGGGAG | -2.58 ± 0.27 | -1.87 ± 0.28
10 | UUUGAGCAAUAUUACGGAUG | -2.66 ± 0.21 | –
11 | UCACAGCAAUAUUACGGGUA | -1.93 ± 0.13 | -0.772 ± 0.1
12 | CCACAGCAAUAUUACGCCGC | -3.12 ± 0.21 | -3.49 ± 0.27
13 | UUCCAGCAAUAUUACGGAAU | -3.81 ± 0.26 | -2.77 ± 0.28
14 | CAUGAGCAAUAUUACGGUUU | -3.52 ± 0.2 | -3.01 ± 0.24
15 | GCGUAGCAAUAUUACGUAUG | -2.96 ± 0.3 | -2 ± 0.24
16 | UACAAGCAAUAUUACGCCUC | -3.38 ± 0.48 | -2.1 ± 0.4
17 | UGCGAGCAAUAUUACGGUAG | -3.36 ± 0.24 | -3.01 ± 0.32
18 | AAUAAGCAAUAUUACGGCUG | -0.2 ± 0.085 | 0.42 ± 0.1
19 | AAUCAGCAAUAUUACGAAUU | -0.152 ± 0.1 | 0.193 ± 0.13
20 | AUAUAGCAAUAUUACGAUCG | -1.94 ± 0.12 | -0.815 ± 0.14
21 | GCGCAGCAAUAUUACGUCCA | -1.63 ± 0.12 | -0.0959 ± 0.18
22 | CCUAAGCAAUAUUACGUAAG | -0.318 ± 0.064 | -0.35 ± 0.087
23 | GGUGAGCAAUAUUACGAGAC | -2.82 ± 0.33 | -2.01 ± 0.46
24 | CUCGAGCAAUAUUACGGAGA | -2.57 ± 0.36 | -1.72 ± 0.28
25 | UACCAGCAAUAUUACGAGAC | -2.38 ± 0.18 | -1.54 ± 0.2

Row | Sequence | self-splicing fitness (ln) (30 °C) | self-splicing fitness (ln) (37 °C)
26 | GGCGAGCAAUAUUACGUGCU | -3.19 ± 0.34 | –
27 | GCCGAGCAAUAUUACGGUAA | -0.184 ± 0.11 | -0.414 ± 0.091
28 | GAACAGCAAUAUUACGGUCU | -1.16 ± 0.086 | -0.205 ± 0.095
29 | UUUGAGCAAUAUUACGUCGC | -3.06 ± 0.49 | -2.07 ± 0.47
30 | UCGGAGCAAUAUUACGAAGG | -2.58 ± 0.45 | –
31 | UAGCAGCAAUAUUACGAAAG | -2.58 ± 0.21 | -1.73 ± 0.25
32 | UAAUAGCAAUAUUACGAUUC | – | -2.05 ± 0.23
33 | UCGCAGCAAUAUUACGGAUG | -1.44 ± 0.13 | -2.55 ± 0.16
34 | UCCCAGCAAUAUUACGGAUG | -3.49 ± 0.2 | -1.31 ± 0.15
35 | GCACAGCAAUAUUACGCGUG | -3.87 ± 0.2 | -2.35 ± 0.18
36 | CACCAGCAAUAUUACGCUGC | -4.19 ± 0.22 | -2 ± 0.16
37 | GCAUAGCAAUAUUACGGUAG | -3.52 ± 0.26 | -3.01 ± 0.3
38 | GCGCAGCAAUAUUACGCCAA | – | -1.42 ± 0.47
39 | AGCAAGCAAUAUUACGCGGC | -3.39 ± 0.34 | -1.82 ± 0.19
40 | GUGAAGCAAUAUUACGCCAA | -0.702 ± 0.13 | -1.88 ± 0.16
41 | AACCAGCAAUAUUACGGAGU | -1.66 ± 0.048 | -0.881 ± 0.064
42 | GGGUAGCAAUAUUACGGCGA | -0.516 ± 0.1 | 0.326 ± 0.12
43 | UCUUAGCAAUAUUACGCUGU | -3.65 ± 0.37 | -1.45 ± 0.26
44 | AUAUAGCAAUAUUACGAGUG | -2.78 ± 0.19 | -1.8 ± 0.2
45 | UCACAGCAAUAUUACGUAGG | -1.07 ± 0.055 | -1.05 ± 0.082
46 | UCGCAGCAAUAUUACGUUUU | -4.52 ± 0.36 | -2.9 ± 0.23
47 | UACCAGCAAUAUUACGGCUG | -3.63 ± 0.14 | -2 ± 0.15
48 | UUGUAGCAAUAUUACGAAUG | -3.32 ± 0.41 | -1.93 ± 0.29
49 | AACAAGCAAUAUUACGUUGU | -2.17 ± 0.074 | -2.39 ± 0.13
